B1: Growth/differentiation factor 5 (Homo sapiens), P43026 (parent)
chain: MRLPKLLTFLLWYLAWLDLEFICTVLGAPDLGQRPQGTRPGLAKAEAKERPPLARNVFRPGGHSYGGGATNANARAKGGTGQTGGLTQPKKDEPKKLPPRPGGPEPKPGHPPQTRQATARTVTPKGQLPGGKAPPKAGSVPSSFLLKKAREPGPPREPKEPFRPPPITPHEYMLSLYRTLSDADRKGGNSSVKLEAGLANTITSFIDKGQDDRGPVVRKQRYVFDISALEKDGLLGAELRILRKKPSDTAKPAAPGGGRAAQLKLSSCPSGRQPAALLDVRSVPGLDGSGWEVFDIWKLFRNFKNSAQLCLELEAWERGRAVDLRGLGFDRAARQVHEKALFLVFGRTKKRDLFFNEIKARSGQDDKTVYEYLFSQRRKRRAPLATRQGKRPSKNLKARCSRKALHVNFKDMGWDDWIIAPLEYEAFHCEGLCEFPLRSHLEPTNHAVIQTLMNSMDPESTPPTCCVPTRLSPISILFIDSANNVVYKQYEDMVVESCGCR

Variants of: B1
Conditions: with bmr1b_human BMPR1B

Variant | effect of a mutation on the interaction
MRLPKLLTFLLWYLAWLDLEFICTVLGAPDLGQRPQGTRPGLAKAEAKERPPLARNVFRPGGHSYGGGATNANARAKGGTGQTGGLTQPKKDEPKKLPPRPGGPEPKPGHPPQTRQATARTVTPKGQLPGGKAPPKAGSVPSSFLLKKAREPGPPREPKEPFRPPPITPHEYMLSLYRTLSDADRKGGNSSVKLEAGLANTITSFIDKGQDDRGPVVRKQRYVFDISALEKDGLLGAELRILRKKPSDTAKPAAPGGGRAAQLKLSSCPSGRQPAALLDVRSVPGLDGSGWEVFDIWKLFRNFKNSAQLCLELEAWERGRAVDLRGLGFDRAARQVHEKALFLVFGRTKKRDLFFNEIKARSGQDDKTVYEYLFSQRRKRRAPLATRQGKRPSKNLKARCSRKALHVNFKDMGWDDWIIAPLEYEAFHCEGLCEFPLLSHLEPTNHAVIQTLMNSMDPESTPPTCCVPTRLSPISILFIDSANNVVYKQYEDMVVESCGCR [R438L] | increasing interaction

Variants of: B1
Conditions: with bmpr2_human BMPR2, Q13873
Chain of bmpr2_human BMPR2, Q13873 (Q13873 whole entry): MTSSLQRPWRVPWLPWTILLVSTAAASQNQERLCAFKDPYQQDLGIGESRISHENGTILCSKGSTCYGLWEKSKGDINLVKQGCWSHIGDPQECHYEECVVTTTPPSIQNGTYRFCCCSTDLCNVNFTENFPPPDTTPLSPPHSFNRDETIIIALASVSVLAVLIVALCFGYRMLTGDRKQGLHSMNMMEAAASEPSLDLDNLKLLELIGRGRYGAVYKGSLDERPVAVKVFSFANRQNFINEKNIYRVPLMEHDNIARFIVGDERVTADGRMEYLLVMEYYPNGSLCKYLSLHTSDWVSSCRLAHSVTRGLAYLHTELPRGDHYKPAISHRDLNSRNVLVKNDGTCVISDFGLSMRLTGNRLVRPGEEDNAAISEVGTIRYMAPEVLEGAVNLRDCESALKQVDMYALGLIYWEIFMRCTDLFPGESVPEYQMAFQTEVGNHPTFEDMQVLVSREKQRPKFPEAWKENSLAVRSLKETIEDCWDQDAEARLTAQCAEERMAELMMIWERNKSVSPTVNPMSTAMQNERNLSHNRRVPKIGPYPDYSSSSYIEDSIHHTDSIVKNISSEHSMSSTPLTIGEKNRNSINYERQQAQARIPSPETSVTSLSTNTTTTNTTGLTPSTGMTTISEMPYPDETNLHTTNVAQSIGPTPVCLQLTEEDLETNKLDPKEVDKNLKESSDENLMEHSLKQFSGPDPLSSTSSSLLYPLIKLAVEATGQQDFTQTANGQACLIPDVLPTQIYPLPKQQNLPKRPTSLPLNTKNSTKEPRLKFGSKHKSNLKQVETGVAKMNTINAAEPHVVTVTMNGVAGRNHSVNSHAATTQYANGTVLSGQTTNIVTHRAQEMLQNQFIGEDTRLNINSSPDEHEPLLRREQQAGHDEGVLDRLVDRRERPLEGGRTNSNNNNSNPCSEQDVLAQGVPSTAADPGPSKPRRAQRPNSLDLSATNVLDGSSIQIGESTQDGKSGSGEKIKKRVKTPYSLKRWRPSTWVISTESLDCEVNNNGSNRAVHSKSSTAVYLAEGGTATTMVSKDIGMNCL

Variant | effect of a mutation on the interaction
MRLPKLLTFLLWYLAWLDLEFICTVLGAPDLGQRPQGTRPGLAKAEAKERPPLARNVFRPGGHSYGGGATNANARAKGGTGQTGGLTQPKKDEPKKLPPRPGGPEPKPGHPPQTRQATARTVTPKGQLPGGKAPPKAGSVPSSFLLKKAREPGPPREPKEPFRPPPITPHEYMLSLYRTLSDADRKGGNSSVKLEAGLANTITSFIDKGQDDRGPVVRKQRYVFDISALEKDGLLGAELRILRKKPSDTAKPAAPGGGRAAQLKLSSCPSGRQPAALLDVRSVPGLDGSGWEVFDIWKLFRNFKNSAQLCLELEAWERGRAVDLRGLGFDRAARQVHEKALFLVFGRTKKRDLFFNEIKARSGQDDKTVYEYLFSQRRKRRAPLATRQGKRPSKNLKARCSRKALHVNFKDMGWDDWIIAPLEYEAFHCEGLCEFPLLSHLEPTNHAVIQTLMNSMDPESTPPTCCVPTRLSPISILFIDSANNVVYKQYEDMVVESCGCR [R438L] | increasing interaction

Variants of: B1
Conditions: with bmr1a_human BMPR1A

Variant | effect of a mutation on the interaction
MRLPKLLTFLLWYLAWLDLEFICTVLGAPDLGQRPQGTRPGLAKAEAKERPPLARNVFRPGGHSYGGGATNANARAKGGTGQTGGLTQPKKDEPKKLPPRPGGPEPKPGHPPQTRQATARTVTPKGQLPGGKAPPKAGSVPSSFLLKKAREPGPPREPKEPFRPPPITPHEYMLSLYRTLSDADRKGGNSSVKLEAGLANTITSFIDKGQDDRGPVVRKQRYVFDISALEKDGLLGAELRILRKKPSDTAKPAAPGGGRAAQLKLSSCPSGRQPAALLDVRSVPGLDGSGWEVFDIWKLFRNFKNSAQLCLELEAWERGRAVDLRGLGFDRAARQVHEKALFLVFGRTKKRDLFFNEIKARSGQDDKTVYEYLFSQRRKRRAPLATRQGKRPSKNLKARCSRKALHVNFKDMGWDDWIIAPLEYEAFHCEGLCEFPLLSHLEPTNHAVIQTLMNSMDPESTPPTCCVPTRLSPISILFIDSANNVVYKQYEDMVVESCGCR [R438L] | increasing interaction

Variants of: B1
Conditions: with bmr1b_human BMPR1B
Remark: another data set of the same source

Variant | effect of a mutation on the interaction
MRLPKLLTFLLWYLAWLDLEFICTVLGAPDLGQRPQGTRPGLAKAEAKERPPLARNVFRPGGHSYGGGATNANARAKGGTGQTGGLTQPKKDEPKKLPPRPGGPEPKPGHPPQTRQATARTVTPKGQLPGGKAPPKAGSVPSSFLLKKAREPGPPREPKEPFRPPPITPHEYMLSLYRTLSDADRKGGNSSVKLEAGLANTITSFIDKGQDDRGPVVRKQRYVFDISALEKDGLLGAELRILRKKPSDTAKPAAPGGGRAAQLKLSSCPSGRQPAALLDVRSVPGLDGSGWEVFDIWKLFRNFKNSAQLCLELEAWERGRAVDLRGLGFDRAARQVHEKALFLVFGRTKKRDLFFNEIKARSGQDDKTVYEYLFSQRRKRRAPLATRQGKRPSKNLKARCSRKALHVNFKDMGWDDWIIAPLEYEAFHCEGLCEFPLRSHPEPTNHAVIQTLMNSMDPESTPPTCCVPTRLSPISILFIDSANNVVYKQYEDMVVESCGCR [L441P] | decreasing interaction

Variants of: B1
Conditions: with bmpr2_human BMPR2, Q13873
Remark: another data set of the same source

Variant | effect of a mutation on the interaction
MRLPKLLTFLLWYLAWLDLEFICTVLGAPDLGQRPQGTRPGLAKAEAKERPPLARNVFRPGGHSYGGGATNANARAKGGTGQTGGLTQPKKDEPKKLPPRPGGPEPKPGHPPQTRQATARTVTPKGQLPGGKAPPKAGSVPSSFLLKKAREPGPPREPKEPFRPPPITPHEYMLSLYRTLSDADRKGGNSSVKLEAGLANTITSFIDKGQDDRGPVVRKQRYVFDISALEKDGLLGAELRILRKKPSDTAKPAAPGGGRAAQLKLSSCPSGRQPAALLDVRSVPGLDGSGWEVFDIWKLFRNFKNSAQLCLELEAWERGRAVDLRGLGFDRAARQVHEKALFLVFGRTKKRDLFFNEIKARSGQDDKTVYEYLFSQRRKRRAPLATRQGKRPSKNLKARCSRKALHVNFKDMGWDDWIIAPLEYEAFHCEGLCEFPLRSHPEPTNHAVIQTLMNSMDPESTPPTCCVPTRLSPISILFIDSANNVVYKQYEDMVVESCGCR [L441P] | increasing interaction

Variants of: B1
Conditions: with bmr1a_human BMPR1A
Remark: another data set of the same source

Variant | effect of a mutation on the interaction
MRLPKLLTFLLWYLAWLDLEFICTVLGAPDLGQRPQGTRPGLAKAEAKERPPLARNVFRPGGHSYGGGATNANARAKGGTGQTGGLTQPKKDEPKKLPPRPGGPEPKPGHPPQTRQATARTVTPKGQLPGGKAPPKAGSVPSSFLLKKAREPGPPREPKEPFRPPPITPHEYMLSLYRTLSDADRKGGNSSVKLEAGLANTITSFIDKGQDDRGPVVRKQRYVFDISALEKDGLLGAELRILRKKPSDTAKPAAPGGGRAAQLKLSSCPSGRQPAALLDVRSVPGLDGSGWEVFDIWKLFRNFKNSAQLCLELEAWERGRAVDLRGLGFDRAARQVHEKALFLVFGRTKKRDLFFNEIKARSGQDDKTVYEYLFSQRRKRRAPLATRQGKRPSKNLKARCSRKALHVNFKDMGWDDWIIAPLEYEAFHCEGLCEFPLRSHPEPTNHAVIQTLMNSMDPESTPPTCCVPTRLSPISILFIDSANNVVYKQYEDMVVESCGCR [L441P] | disrupting interaction

Reference: IntAct's records for PubMed 19229295
